Test results as given in patent US20210115113A1 (CITY OF HOPE, published 2021).

Assays:
[1] = target: T1, EBV gp350 expressed on the surface of stably transfected CHO cells (Epstein-Barr virus, UniProt P03200 1-907); assay: cross-competition on gp350-CHO cells (flow), unlabeled 500 µg/ml; competitor: biotinylated h72A1
T1 construct: also called native gp350; gp350 expressing CHO cells
T1 sequence: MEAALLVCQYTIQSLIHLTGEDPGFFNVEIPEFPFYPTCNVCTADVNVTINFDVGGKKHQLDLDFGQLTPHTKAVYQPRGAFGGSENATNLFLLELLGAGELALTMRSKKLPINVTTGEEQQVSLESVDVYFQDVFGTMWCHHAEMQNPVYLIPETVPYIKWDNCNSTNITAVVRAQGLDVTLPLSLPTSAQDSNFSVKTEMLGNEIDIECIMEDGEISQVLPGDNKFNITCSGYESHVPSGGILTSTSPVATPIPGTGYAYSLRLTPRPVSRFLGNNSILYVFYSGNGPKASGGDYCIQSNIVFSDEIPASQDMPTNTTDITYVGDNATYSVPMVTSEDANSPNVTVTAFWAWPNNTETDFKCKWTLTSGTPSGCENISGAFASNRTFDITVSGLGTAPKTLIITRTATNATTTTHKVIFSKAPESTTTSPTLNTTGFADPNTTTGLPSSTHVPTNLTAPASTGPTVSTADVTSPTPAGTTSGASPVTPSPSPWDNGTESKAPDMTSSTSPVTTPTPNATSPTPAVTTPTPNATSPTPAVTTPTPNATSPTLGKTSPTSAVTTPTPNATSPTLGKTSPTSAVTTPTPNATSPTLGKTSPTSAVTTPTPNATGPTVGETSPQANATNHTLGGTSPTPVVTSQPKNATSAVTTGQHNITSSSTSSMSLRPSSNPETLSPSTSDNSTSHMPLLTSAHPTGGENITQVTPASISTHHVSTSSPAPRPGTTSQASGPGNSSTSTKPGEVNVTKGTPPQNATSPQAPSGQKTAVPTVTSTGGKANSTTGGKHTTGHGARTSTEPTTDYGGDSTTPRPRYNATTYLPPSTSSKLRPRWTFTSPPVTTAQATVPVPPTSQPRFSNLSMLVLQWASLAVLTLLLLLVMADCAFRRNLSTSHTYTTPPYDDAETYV

[2] = target: T1, EBV gp350 expressed on the surface of …; assay: cell competition (flow), unlabeled 500 µg/ml; competitor: biotinylated m72A1 1 µg/ml
[3] = target: T1, EBV gp350 expressed on the surface of …; assay: cross-competition on gp350-CHO cells (flow), unlabeled 500 µg/ml; competitor: biotinylated HB20
[4] = target: T1, EBV gp350 expressed on the surface of …; assay: cross-competition on gp350-CHO cells (flow), unlabeled 500 µg/ml; competitor: biotinylated m72A1
[5] = target: T1, EBV gp350 expressed on the surface of …; assay: cross-competition on gp350-CHO cells (flow), unlabeled 500 µg/ml; competitor: biotinylated HB5
[6] = target: T1, EBV gp350 expressed on the surface of …; assay: cell competition (flow), unlabeled 250 µg/ml; competitor: biotinylated m72A1 1 µg/ml
[7] = target: T1, EBV gp350 expressed on the surface of …; assay: cross-competition on gp350-CHO cells (flow), unlabeled 500 µg/ml; competitor: biotinylated HB11
[8] = target: T1, EBV gp350 expressed on the surface of …; assay: cross-competition on gp350-CHO cells (flow), unlabeled 500 µg/ml; competitor: biotinylated HB1
[9] = target: T1, EBV gp350 expressed on the surface of …; assay: cell competition (flow), unlabeled 67.5 µg/ml; competitor: biotinylated m72A1 1 µg/ml
[10] = target: T1, EBV gp350 expressed on the surface of …; assay: cell competition (flow), unlabeled 125 µg/ml; competitor: biotinylated m72A1 1 µg/ml
[11] = target: T1, EBV gp350 expressed on the surface of …; assay: cross-competition on gp350-CHO cells (flow), unlabeled 500 µg/ml; competitor: biotinylated HB17
[12] = target: T1, EBV gp350 expressed on the surface of …; assay: cross-competition on gp350-CHO cells (flow), unlabeled 500 µg/ml; competitor: biotinylated 54A1
[13] = target: T2, EBV gp350 on EBV-eGFP virions (Epstein-Barr virus, UniProt P03200 1-907); assay: cell-based or functional assay
T2 sequence: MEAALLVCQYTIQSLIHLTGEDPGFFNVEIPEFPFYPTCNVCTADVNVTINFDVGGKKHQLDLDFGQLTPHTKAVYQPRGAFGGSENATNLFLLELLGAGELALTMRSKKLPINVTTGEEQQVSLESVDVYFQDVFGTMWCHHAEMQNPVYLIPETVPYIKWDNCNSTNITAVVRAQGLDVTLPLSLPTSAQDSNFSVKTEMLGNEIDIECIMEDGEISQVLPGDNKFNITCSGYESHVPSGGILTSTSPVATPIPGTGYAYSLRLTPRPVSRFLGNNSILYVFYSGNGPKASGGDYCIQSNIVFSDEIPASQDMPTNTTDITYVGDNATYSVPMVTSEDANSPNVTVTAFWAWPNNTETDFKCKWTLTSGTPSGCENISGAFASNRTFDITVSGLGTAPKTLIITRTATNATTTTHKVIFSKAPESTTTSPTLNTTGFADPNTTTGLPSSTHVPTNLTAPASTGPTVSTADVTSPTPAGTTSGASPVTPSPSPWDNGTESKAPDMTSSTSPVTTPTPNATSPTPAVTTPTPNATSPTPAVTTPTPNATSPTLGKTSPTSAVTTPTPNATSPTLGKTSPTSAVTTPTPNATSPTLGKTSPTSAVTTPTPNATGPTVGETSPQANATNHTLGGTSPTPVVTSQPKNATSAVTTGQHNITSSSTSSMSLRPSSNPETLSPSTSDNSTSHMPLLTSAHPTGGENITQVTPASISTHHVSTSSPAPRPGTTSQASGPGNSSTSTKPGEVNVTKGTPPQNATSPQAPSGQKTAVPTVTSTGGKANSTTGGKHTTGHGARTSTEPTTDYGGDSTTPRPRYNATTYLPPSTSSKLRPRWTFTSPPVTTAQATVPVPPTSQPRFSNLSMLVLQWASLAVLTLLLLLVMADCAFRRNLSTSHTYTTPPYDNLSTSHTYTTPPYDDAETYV

B1: HB5 (antibody, V domains shown)
VH: AELVRPGASVKISCKAFGYTFTNHNINWVKQRPGQGLDWIGYINPYNDYTSYNQKFKGKATLTVDKSSNTAYMELSSLTSEDSAVYYCARSEGWLRRGAWFAYWGQGTLVTVSA
VL: AILSVSPGERVSFSCRASQSIGTSIHWYQQRTNDSPRLLIKYASESISGIPPRFSGSGSGTDFTLSINSVESEDIADYHCQQSNSWPMLTFGAGTKLELKR
notes: also called mHB5
- % inhibition of biotinylated nAbs [1]: 97%
- % inhibition of biotinylated nAbs [2]: 95%
- % inhibition of biotinylated nAbs [3]: 73%
- % inhibition of biotinylated nAbs [4]: 97%
- % inhibition of biotinylated nAbs [5]: 98%
- % inhibition of biotinylated nAbs [6]: 93%
- % inhibition of biotinylated nAbs [7]: 93%
- % inhibition of biotinylated nAbs [8]: 92%
- % inhibition of biotinylated nAbs [9]: 94%
- % inhibition of biotinylated nAbs [10]: 92%
- % inhibition of biotinylated nAbs [11]: 9%
- % inhibition of biotinylated nAbs [12]: 13%

B2: HB17 (antibody, V domains shown)
VH: AELVIPGASVKVSCKASGYTFTSYWIHWVKQWPGQGLEWIGEINPNNGHTNYNEKFKSKATLTVDKSSSTAYMQLSSLTSEDSAVYYCARNLFYYSRPDYWGQGTSVTVSS
VL: SSLSASLGDRVTISCRASQDIGNYLNWYQQKPDGTIKLLIYYTSRLHSGVPSRFSGSGSGTDYSLTISNLEEEDIATYFCQQGNTLPPTFGGGTKLEIKR
- % inhibition of biotinylated nAbs [1]: 16%
- % inhibition of biotinylated nAbs [2]: 32%
- % inhibition of biotinylated nAbs [3]: 17%
- % inhibition of biotinylated nAbs [4]: 24%
- % inhibition of biotinylated nAbs [5]: 32%
- % inhibition of biotinylated nAbs [6]: 32%
- % inhibition of biotinylated nAbs [7]: 11%
- % inhibition of biotinylated nAbs [8]: 23%
- % inhibition of biotinylated nAbs [9]: 0%
- % inhibition of biotinylated nAbs [10]: 6%
- % inhibition of biotinylated nAbs [11]: 86%
- % inhibition of biotinylated nAbs [12]: 0%

B3: murine 72A1 (m72A1), anti-EBV gp350 neutralizing antibody from hybridoma HB168 (antibody, V domains shown)
VH: EVQLQQSGPELVKPGTSMKISCKASGSSFTDYTMNWMKQSHGKNLEWIGLINPYNGGTRYNQKFKGKATLTLDKSSSTAYMEVLSLTSEDSAVYYCAGGLRRVNWFAYWGQGTLVSVSA
VL: QAVLTQESALTTSPGETVTLTCRSSTGAVTTSNYANWVQEKPDHLFTGLIGGTNNRVPGVPARFSGSLIGDKAALTITGAQTEDEAIYFCVLWHSNHWVFGGGTKLTVL
notes: also called nAb-72A1; mouse 72A1
- % inhibition of biotinylated nAbs [1]: 98%
- % inhibition of biotinylated nAbs [2]: 91%
- % inhibition of biotinylated nAbs [3]: 31%
- % inhibition of biotinylated nAbs [4]: 98%
- % inhibition of biotinylated nAbs [5]: 97%
- % inhibition of biotinylated nAbs [6]: 93%
- % inhibition of biotinylated nAbs [7]: 90%
- % inhibition of biotinylated nAbs [8]: 82%
- % inhibition of biotinylated nAbs [9]: 97%
- % inhibition of biotinylated nAbs [10]: 94%
- % inhibition of biotinylated nAbs [11]: 37%
- % inhibition of biotinylated nAbs [12]: 1%

B4: HB11 (antibody, V domains shown)
VH: PSLVKPSQTLSLTCSVTGDSITSGFWNWIRKFPGNKLEYMGYISYSGSTYYNPSLKSRISITRDTSKNQYYLQLNSVTTEDTATYYCARGNGGNYDWYFDVWGAGTTVTVSS
VL: AIMSASLGEKVTMSCRASSSVNFMNWYQQKSDDSPKLLIYYISNLAPGVPARFSGSGSGNSYSLTISGMEGEDAATYYCQQFTSSPSWTFGGGTKLEIKR
- % inhibition of biotinylated nAbs [1]: 97%
- % inhibition of biotinylated nAbs [2]: 95%
- % inhibition of biotinylated nAbs [3]: 3%
- % inhibition of biotinylated nAbs [4]: 97%
- % inhibition of biotinylated nAbs [5]: 96%
- % neutralization of EBV-eGFP infection of Raji cells at 100 µg/ml [13]: 90%
- % inhibition of biotinylated nAbs [6]: 95%
- % inhibition of biotinylated nAbs [7]: 96%
- % inhibition of biotinylated nAbs [8]: 93%
- % inhibition of biotinylated nAbs [9]: 87%
- % inhibition of biotinylated nAbs [10]: 89%
- % inhibition of biotinylated nAbs [11]: 17%
- % inhibition of biotinylated nAbs [12]: 9%

B5: HB1 (antibody, V domains shown)
VH: PGLVAPSQSLSITCTVSGFLLTTYGVHWVRQPPGKGLEWLGVIWAGGSTNYNSALMSRLSINKDISKSQVFLKMNSLQTDDTAMYYCTRDRGYGYLYAMDYWGQGTSVTVSS
VL: KFMSTSVGDRVSVTCKASQNVGTNVAWYQQKPGQSPKALIYSTSSRYTGVPDRFAGSGSGTDYTLTISNVQSEDLAEYFCQQYNTYPYTFGGGTRLDIKR
- % inhibition of biotinylated nAbs [1]: 95%
- % inhibition of biotinylated nAbs [2]: 91%
- % inhibition of biotinylated nAbs [3]: 61%
- % inhibition of biotinylated nAbs [4]: 98%
- % inhibition of biotinylated nAbs [5]: 97%
- % neutralization of EBV-eGFP infection of Raji cells at 100 µg/ml [13]: 90%
- % inhibition of biotinylated nAbs [6]: 89%
- % inhibition of biotinylated nAbs [7]: 96%
- % inhibition of biotinylated nAbs [8]: 92%
- % inhibition of biotinylated nAbs [9]: 81%
- % inhibition of biotinylated nAbs [10]: 81%
- % inhibition of biotinylated nAbs [11]: 16%
- % inhibition of biotinylated nAbs [12]: 4%
